According to article PMC2885054:

Key:
[1] = biological target: V5-tagged BUNV L protein expressed from a transfected cDNA construct (Bunyamwera virus) (UniProt P20470); test: co-IP; as a2, but with a viral transcript co-expressed: N from pT7riboBUNS (also full-length S antigenome RNA), or additionally pT7riboBUNM(+) or minigenome pT7riboBUNMREN(-); bands quantified by phosphorimager and normalised to expression
[2] = biological target: Bunyamwera virus (BUNV) nucleoprotein (N) (Bunyamwera virus) (UniProt P16495); test: as above

“Bunyamwera virus (BUNV) nucleoprotein (N) (from UniProt P16495 1-233) (natural protein)” was tested, and the fold more co-precipitated than in cells transfected with pTM1-BUNS [1] was 5 fold.

Substance “V5-tagged BUNV L protein expressed from a transfected cDNA construct (from UniProt P20470 1-2238)” has a fold more co-precipitated than in cells transfected with pTM1-BUNS [2] of 8 fold.
